{
  "source": "paper PMC11343202",
  "molecular_target": "GFP with a c-Myc nuclear localization signal at the C-terminus (GFP-NLS)",
  "experiment": "label-free LC MS/MS",
  "data": [
    {"substance": "AAV-DJ capsid incorporating VP1 with a GFPnb inserted at position H631, supplemented with wild type VP2/VP3 (complex)", "values": [
      {"measurement": "GFP:capsid (GFP-NLS per capsid)", "result": "1 to 3"}
    ]}
  ]
}
